Drawing on the supplement of paper PMC9233669, this text covers self-aminoacylation for 65 sequences.

Series [1] concerns biotinyl-Trp-oxazolone. As to the kind of experiment: self-aminoacylation, catalytic enhancement (BWO) (fold over background); higher = more active; k-Seq, kA / k0A0; sequences stand for … in GGGAAUGGAUCCACAUCUACGAAUUC…UUCACUGCAGACUUGACGAAGCUG
Summed up:
(§1)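 Mutagenized RNA pools with a 21-nt variable region (0.43 μM) reacted with each biotinyl-aminoacyl-oxazolone at 2–1250 μM. Reactions ran in 50 μL HEPES/NaCl/KCl/MgCl2/CaCl2 buffer with 5% acetonitrile, pH 6.9–7.0, for 90 minutes at room temperature. Streptavidin-captured RNA was quantified by triplicate qPCR and Illumina sequencing, and per-sequence fraction reacted was fit to a pseudo-first-order model with 1000 bootstraps. Catalytic enhancement is median kA divided by the uncatalyzed rate, the low-activity peak of a bimodal Gaussian fit.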

The test system of series [2] is biotinyl-Phe-oxazolone. Description: self-aminoacylation, catalytic enhancement (BFO) (fold over background); higher = more active; k-Seq, kA / k0A0; sequences stand for … in GGGAAUGGAUCCACAUCUACGAAUUC…UUCACUGCAGACUUGACGAAGCUG
Summed up:
as §1

This sample holds only a part of the variants without activity.

“CUUCUUCAACCAAUCGGUCUG [Fam1A.1 aminoacylation ribozyme variant]”: the figures for the self-aminoacylation in series [1] and in series [2] were 6.07 and 9.05, respectively.
The like results for “AAGUUUACUAAUUGUCGCAAG [Fam3.1 aminoacylation ribozyme variant]” were, in that order, 2 and 2.6.
As to “GUACGUCAAACAAUCGGUCUG [Fam1A.1 aminoacylation ribozyme variant]”, the self-aminoacylation in series [1] was found to be 2.71.
As to “UAAUUUGCUAAUAGUCGCAAG [Fam3.1 aminoacylation ribozyme variant]”, the self-aminoacylation in series [1] was 2.01; in series [2], 2.21.
“AGGUUUGCUCAUAGUCGCAAG [Fam3.1 aminoacylation ribozyme variant]”: the self-aminoacylation in series [1] turned out to be 2.45; in series [2], 2.95.
On to “AAUUUUGCGAAUAGUCGCAAG [Fam3.1 aminoacylation ribozyme variant]”, for which the self-aminoacylation in series [1] was determined as 2.
“AAUACCCUGGUCAUCGAGUGC [Fam2.1 aminoacylation ribozyme variant]”: the results for the self-aminoacylation in series [1] and in series [2] were 2.03 and 3.36, respectively.
The like results for “CUACUUCAAACAAUCAGACUG [Fam1A.1 aminoacylation ribozyme variant]” were, in that order, 2.98 and 8.24.
The like results for “GAGUUUGCUAAUAGUCGAAAG [Fam3.1 aminoacylation ribozyme variant]” were, in that order, 5.05 and 13.3.
The corresponding values for “AAGUUUGCUAUUAGUCGCGAG [Fam3.1 aminoacylation ribozyme variant]” are 2.3 and 4.31.
Turning to “AAGUUUGCAAAUAGUCGCCAG [Fam3.1 aminoacylation ribozyme variant]”, the results for the self-aminoacylation in series [1] and in series [2] were 2.05 and 2.38, respectively.
“CUCCUUCAAACAAUCGGUCAG [Fam1A.1 aminoacylation ribozyme variant]”: the self-aminoacylation in series [1] turned out to be 7.87; in series [2], 14.
As for “CUACUUCAAGUAAUCGGUCUG [Fam1A.1 aminoacylation ribozyme variant]”, the self-aminoacylation in series [1] stood at 6.74; in series [2] it was 9.14.
The corresponding values for “CUACUUCAAAAAAUCGGUCGG [Fam1A.1 aminoacylation ribozyme variant]” are 5.6 and 4.54.
As for “AAGUAUGCUAAUAGUCGCCAG [Fam3.1 aminoacylation ribozyme variant]”, the self-aminoacylation in series [1] was 3.29.
As for “CCACACUCCAGGCAAUCGGUC [Fam1B.1 aminoacylation ribozyme variant]”, the self-aminoacylation in series [1] was determined as 2.04.
For “CCACACUUCAAGUAAUCGGCC [Fam1B.1 aminoacylation ribozyme variant]”, the figures for the self-aminoacylation in series [1] and in series [2] were 4.17 and 3.03, respectively.
The like results for “CCACACUUCAAUAAAUCGGUC [Fam1B.1 aminoacylation ribozyme variant]” were, in that order, 6.22 and 11.7.
Take “AUUACGCUGCUCAUCGAGUGA [Fam2.1 aminoacylation ribozyme variant]”: the self-aminoacylation in series [1] came to 2.69.
On to “CCACAUUUCAAGCAAUCGGUC [Fam1B.1 aminoacylation ribozyme variant]”, for which, in series [2], the self-aminoacylation is 3.26.
The same measure, in the same setting: as for “CUACUUCAGACAAUCGGGCUG [Fam1A.1 aminoacylation ribozyme variant]”, the figure is 3.52; as for “CCACACUUCAAACAAUCGAUC [Fam1B.1 aminoacylation ribozyme variant]”, 2.59; as for “CAACUUCAAACAAUCGAUCUG [Fam1A.1 aminoacylation ribozyme variant]”, 3.33.
On the same count and under the same terms, the figure for “AAGUUUGCUCAUAGUCGCAGG [Fam3.1 aminoacylation ribozyme variant]” is 2.92; for “AAGCUUGCUAAUAGUCCCAAG [Fam3.1 aminoacylation ribozyme variant]” it is 3.57.
The same measure, in the same setting: as for “AGGUUUGUUAAUAGUCGCAAG [Fam3.1 aminoacylation ribozyme variant]”, the figure is 3.87; as for “AUUACCCUGGUCGUCGUGUGA [Fam2.1 aminoacylation ribozyme variant]”, 9.58.
“CUACAUCAAACAAUGGGUCUG [Fam1A.1 aminoacylation ribozyme variant]”: the self-aminoacylation in series [2] was 2.95.
Regarding “CCACACUUCAAGAAAUCGGUU [Fam1B.1 aminoacylation ribozyme variant]”, in series [1], the self-aminoacylation was 2.03.
Regarding “ACGUUAGCUAAUAGUCGCAAG [Fam3.1 aminoacylation ribozyme variant]”, the self-aminoacylation in series [2] was 3.08.
Still for that read-out and setting: the figure for “CUGCUUCAAACAAUCCGUCUG [Fam1A.1 aminoacylation ribozyme variant]” is 2.71.
In the case of “AAGUUUGCUCACAGUCGCAAG [Fam3.1 aminoacylation ribozyme variant]”, the self-aminoacylation in series [2] is 2.76.
With “AUUACCCUGGUGAUCGUGUGA [Fam2.1 aminoacylation ribozyme variant]”, the self-aminoacylation in series [2] was determined as 5.71.
Still for that read-out and setting: as for “AAGUUUCCUAAUAGUCUCAAG [Fam3.1 aminoacylation ribozyme variant]”, the figure is 2.15; as for “AGUCACCUAGGUCAUCGUGUG [Fam2.2 aminoacylation ribozyme variant]”, 7.83.
Turning to “CUACUUCCAACGAUCGGUCUG [Fam1A.1 aminoacylation ribozyme variant]”, the self-aminoacylation in series [2] was 3.05.
The same measure, in the same setting: the figure for “AAGCUUGCUAAUAAUCGCAAG [Fam3.1 aminoacylation ribozyme variant]” is 2.2; for “AUUACCCUGGUCAUCGAGAGG [Fam2.1 aminoacylation ribozyme variant]” it is 2.47.
Regarding “AAGUUUGCUAAAAGUCGCCAG [Fam3.1 aminoacylation ribozyme variant]”, the self-aminoacylation in series [1] was 2.25.
Turning to “AAGUUUGCUAAUGGCCGCAAG [Fam3.1 aminoacylation ribozyme variant]”, in series [2], the self-aminoacylation was found to be 4.21.
On the same count and under the same terms, the figure for “AUUUCCCUGGUCAUCGAGUUA [Fam2.1 aminoacylation ribozyme variant]” is 2.12.
For “GAGUUUGCUAAUAGUAGCAAG [Fam3.1 aminoacylation ribozyme variant]”, the self-aminoacylation in series [2] came out at 3.32.
As to “AUUCACCUAGGUCGUCGUGUG [Fam2.2 aminoacylation ribozyme variant]”, the self-aminoacylation in series [2] was 3.62.
Consider “CUCCUUCAAACAGUCGGUCUG [Fam1A.1 aminoacylation ribozyme variant]”, for which the self-aminoacylation in series [2] was found to be 3.98.
Same read-out and setting: as for “ACUCACCUAGGUCAUCGUGUG [Fam2.2 aminoacylation ribozyme variant]”, the figure is 4.06; as for “AAGUUUACUAAUAGUCGUAAG [Fam3.1 aminoacylation ribozyme variant]”, 2.3; as for “AUUCUCCUAGGUCAUCGGGUC [Fam2.2 aminoacylation ribozyme variant]”, 4.09.
Same read-out and setting: as for “CUACUUCAAACACUCGGUCGG [Fam1A.1 aminoacylation ribozyme variant]”, the figure is 5.02; as for “AAUUUUGCUAAUGGUCGCAAG [Fam3.1 aminoacylation ribozyme variant]”, 3.61.
Turning to “CAACUUUAAACAAUCGGUCUG [Fam1A.1 aminoacylation ribozyme variant]”, the self-aminoacylation in series [2] came out at 2.09.
In the case of “AAGUUGGCUAAUAGUCGCGAG [Fam3.1 aminoacylation ribozyme variant]”, in series [1], the self-aminoacylation amounted to 3.96.
On to “AAGUUUGCGCAUAGUCGCAAG [Fam3.1 aminoacylation ribozyme variant]”, for which, in series [2], the self-aminoacylation is 2.97.
Still for that read-out and setting: as for “AAGUUUGCUAAAAGUCGCAUG [Fam3.1 aminoacylation ribozyme variant]”, the figure is 2.71.
Same read-out and setting: as for “CUACUUCAAAAACUCGGUCUG [Fam1A.1 aminoacylation ribozyme variant]”, the figure is 2.19; as for “AAGUUUAAUAAUAGUCGCAAG [Fam3.1 aminoacylation ribozyme variant]”, 2.22; as for “CCACGCAUCAAGCAAUCGGUC [Fam1B.1 aminoacylation ribozyme variant]”, 3.83.
Still for that read-out and setting: as for “AAGUUAGCGAAUAGUCGCAAG [Fam3.1 aminoacylation ribozyme variant]”, the figure is 2.1.
As for “CAACACUUCAAGCAAUCGGAC [Fam1B.1 aminoacylation ribozyme variant]”, in series [2], the self-aminoacylation is 2.37.
Same read-out and setting: as for “AUUACCCUGGCCAUCGUGUGA [Fam2.1 aminoacylation ribozyme variant]”, the figure is 6.7; as for “GCACACUUCAAGCAAACGGUC [Fam1B.1 aminoacylation ribozyme variant]”, 2.05; as for “CCACACUUCAGGCAAUCCGUC [Fam1B.1 aminoacylation ribozyme variant]”, 2.08.
The same measure, in the same setting: as for “GUACUUCGAACAAUCGGUCUG [Fam1A.1 aminoacylation ribozyme variant]”, the figure is 5.74.
Still for that read-out and setting: the figure for “CUACUGCAAUCAAUCGGUCUG [Fam1A.1 aminoacylation ribozyme variant]” is 2.9; for “CAGUUUGCUAAUAGUCGCUAG [Fam3.1 aminoacylation ribozyme variant]” it is 2.2.
Regarding “AAGUUUGCUAAUAUUCCCAAG [Fam3.1 aminoacylation ribozyme variant]”, the self-aminoacylation in series [1] was 2.1.
